We go through four molecules from publication PMC4125734 (Molecular & Cellular Proteomics : MCP, 2014).

Data set [1] deals with 14-3-3γ (UniProt P61981). Nature of the data set: native MS.
Data set [2] addresses 14-3-3γ (UniProt P61981). In words: negative-stain electron microscopy.
Data set [3] has as its target 14-3-3γ (UniProt P61981). Nature of the data set: negative-stain electron microscopy. The source holds these as a separate data set.
Data set [4] addresses 14-3-3γ (UniProt P61981). In words: native MS. The source holds these as a separate data set.
The target of data set [5] is 14-3-3γ (UniProt P61981). In words: SPR. In general terms: Surface plasmon resonance follows binding to a sensor surface in real time, without labels.
Data set [6] deals with 14-3-3γ (UniProt P61981). Nature of the data set: native MS. The source holds these as a separate data set.
The target in data set [7] is GST-14-3-3γ (UniProt P61981). In words: SPR.
Data set [8] addresses GST-14-3-3γ (UniProt P61981). In words: SPR. This is another data set of the same source.
The target of data set [9] is GST-14-3-3γ (UniProt P61981). In words: SPR. The source holds these as a separate data set.
Data set [10] concerns the molecule itself. Nature of the data set: native MS.

Where “and” joins values, the source holds several entries; their conditions need not be identical. Identical values can stand only once. Like-named read-outs stand apart in the source and are kept apart here.

The term kon denotes the rate constant with which the complex forms. Low values mean slower complex formation, high ones faster complex formation. Turning to “human tyrosine hydroxylase isoform 1 phosphorylated on Ser19 (TH-pS19), full stoichiometry (from UniProt P07101-3 1-497) (enzyme)”, the stoichiometry N (14-3-3γ dimers per TH tetramer) in data set [1] amounted to 2; in data set [2] it was 1; in data set [3] it was 2; in [4], 2; in data set [6], 1. The dissociation rate constant of the smaller, rapidly dissociating population in [5] is 0.018 s⁻¹. The molecule further came in with a kon in data set [5] of 144000 M⁻¹ s⁻¹.

One may read the Kd as the equilibrium constant for the complex coming apart. The koff is the rate constant with which the complex falls apart. Read a low koff as slow dissociation. For “human tyrosine hydroxylase isoform 1 phosphorylated on Ser19 to low stoichiometry (TH-pS19L) (from UniProt P07101-3 1-497) (enzyme)”, the stoichiometry N (14-3-3γ dimers per TH tetramer) in data set [1] was 1 and 2. Besides, the association rate constant (kon) in [7] turned out to be 1.8e+06 M⁻¹ s⁻¹; in data set [8], 1.2e+06 M⁻¹ s⁻¹; in data set [5], 780000 M⁻¹ s⁻¹; in data set [9], 2.4e+06 M⁻¹ s⁻¹. For the same molecule, in data set [5], the Kd came out at 0.57 nM. In data set [5], this molecule showed a dissociation rate constant of the smaller, rapidly dissociating population of 0.019 s⁻¹. Also, the koff in data set [5] was in the range of 0.00045 to 0.00051 s⁻¹; in data set [9] it was 0.00063 to 0.00069 s⁻¹.

For “human tyrosine hydroxylase isoform 1 phosphorylated on both Ser19 and Ser40 (TH-pS19pS40) (from UniProt P07101-3 1-497) (enzyme)”, the stoichiometry N (14-3-3γ dimers per TH tetramer) in data set [1] was determined as 2. In [5], the Kd was 2.1 nM; the dissociation rate constant of the smaller, rapidly dissociating population was determined as 0.018 s⁻¹; the koff turned out to be 0.00036 s⁻¹; the kon amounted to 159000 M⁻¹ s⁻¹.

B1: 14-3-3γ (natural protein)
chain: VDREQLVQKARLAEQAERYDDMAAAMKNVTELNEPLSNEERNLLSVAYKNVVGARRSSWRVISSIEQKTSADGNEKKIEMVRAYREKIEKELEAVCQDVLSLLDNYLIKNCSETQYESKVFYLKMKGDYYRYLAEVATGEKRATVVESSEKAYSEAHEISKEHMQPTHPIRLGLALNYSVFYYEIQNAPEQACHLAKTAFDDAIAELDTLNEDSYKDSTLIMQLLRDNLTLWTSDQQDDDGGEGNN
In general, stoichiometry N refers to the number of molecules, sites or subunits per partner or assembly. In the case of B1, the “stoichiometry N” value in data set [10] stood at 2.
